Test results from patent publication US20160362487A1 (Regeneron, published 2016).

Columns and labels:
[1] = target: T1, human IL-33 (R&D Systems, #3625-IL-010/CF) (human, UniProt O95760 112-270); assay: BLI; hIL-33 pre-mixed with mAb-2 Isotype control 2
T1 construct: Commercial recombinant protein; also called hIL-33; interleukin-33
T1 sequence (looked up): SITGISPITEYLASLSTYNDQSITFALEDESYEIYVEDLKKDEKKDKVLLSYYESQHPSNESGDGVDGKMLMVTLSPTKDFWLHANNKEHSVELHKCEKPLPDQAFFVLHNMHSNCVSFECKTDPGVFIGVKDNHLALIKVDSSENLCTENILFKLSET
Procedure: (§1) Binding competition between a panel of different anti-IL-33 monoclonal antibodies was determined using a real time, label-free bio-layer interferometry assay on an Octet® HTX biosensor (ForteBio, A Division of Pall Life Sciences). The experiment was performed at 25° C. using a buffer of 0.01M HEPES pH7.4, 0.15M NaCl, 0.05% v/v Surfactant Tween-20, and 0.1 mg/ml BSA (HBS-ET kinetics buffer) with the plate shaking at a speed of 1000 rpm. To assess whether two antibodies were able to compete with one another for binding to human IL-33, a pre-mix assay format was used where 100 nM of human IL-33 (R&D Systems; #3625-IL-010/CF) was pre-mixed with 500 nM of different anti-IL-33 monoclonal antibodies (subsequently referred to as mAb-2) for at least 2 hours prior to running the binding competition assay. […] Following the capture step, unoccupied anti-mouse Fc polyclonal antibody and anti-human Fc polyclonal antibody on the Octet biosensors were saturated by submerging them for 4 minutes into wells containing 200 μg/mL of a non-specific monoclonal antibody with a mouse Fc or with a human Fc, respectively. Finally, the Octet biosensors were immersed for 4 minutes into wells containing the pre-mixed samples of 100 nM of human IL-33 and 500 nM of mAb-2. At the end of each cycle, the non-covalently captured anti-IL-33 antibodies along with the bound pre-complex of human IL-33 and mAb-2 were removed from the biosensors using three alternate 20 second immersions into 10 mM HCl followed by submerging into HBS-ET kinetics buffer. The biosensors were washed in HBS-ET kinetics buffer in between every step of the experiment. The real-time binding response was monitored during the binding events, and the binding response (in units of nm) at the end of every step was recorded.

[2] = target: T1, human IL-33 (R&D Systems, …); assay: BLI; hIL-33 pre-mixed with mAb-2 H1M9565N
Procedure: as §1

[3] = target: T2, cynomolgus monkey IL-33 expressed with a C-terminal hexahistidine tag (cynomolgus monkey); assay: SPR 37C pH7.4, mAb captured
T2 construct: also called MfIL-33-6His; Mf-IL-33-6His
T2 chain: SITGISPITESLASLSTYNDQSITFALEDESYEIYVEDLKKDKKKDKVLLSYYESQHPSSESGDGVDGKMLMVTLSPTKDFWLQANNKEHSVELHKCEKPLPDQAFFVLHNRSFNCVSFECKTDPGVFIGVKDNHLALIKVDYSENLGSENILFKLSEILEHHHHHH
Procedure: (§2) Equilibrium dissociation constants (KD values) for IL-33 binding to purified anti-IL-33 monoclonal antibodies were determined using a real-time surface plasmon resonance biosensor using a Biacore 4000 instrument. The Biacore sensor surface was first derivatized by amine coupling with either a polyclonal rabbit anti-mouse antibody (GE, # BR-1008-38) or with a monoclonal mouse anti-human Fc antibody (GE, # BR-1008-39) to capture anti-IL-33 monoclonal antibodies expressed with mouse or with human IgG4 constant regions, respectively. All Biacore binding studies were performed in 0.01M ADA pH 7.4, 0.15M NaCl, 3 mM EDTA, and 0.05% v/v Surfactant Tween-20 (ABS-ET running buffer). […] Association of either hIL-33 or MfIL-33-6His to the captured monoclonal antibody was monitored for 4 minutes and their dissociation in ABS-ET running buffer was monitored for 10 minutes. The effect of reduced pH on the binding of each anti-IL-33 antibody to either hIL-33 or MfIL-33-6His was studied using an in-line pH chase assay format in 0.01M ADA pH 6.0, 0.15M NaCl, 3 mM EDTA, and 0.05% v/v Surfactant Tween-20 (ABS-ET pH6 buffer). To achieve this, association of either hIL-33 or MfIL-33-6His to the captured monoclonal antibody was monitored for 4 minutes in ABS-ET running buffer. Following a 30 second dissociation of either hIL-33 or MfIL-33-6His in ABS-ET running buffer, ABS-ET pH6 buffer was injected for 3 minutes, and the analyte dissociation under the low-pH conditions was measured. All the binding kinetic experiments were performed at both 25° C. and 37° C. Kinetic association (kₐ) and dissociation (kd) constants were determined by fitting the real-time sensorgrams to a 1:1 binding model using Scrubber 2.0c curve fitting software. Binding dissociation equilibrium constants (KD) and dissociative half-lives (t½) were calculated from the kinetic rate constants as: […]

[4] = target: T1, human IL-33 (R&D Systems, …); assay: SPR 37C pH7.4, mAb captured
Procedure: as §2

[5] = target: T2, cynomolgus monkey IL-33 expressed with …; assay: BLI; captured MfIL-33-6His, mAb-1 step with Buffer
Procedure: Binding competition between a panel of different anti-IL-33 monoclonal antibodies was determined using a real time, label-free bio-layer interferometry assay on an Octet® HTX biosensor (ForteBio, A Division of Pall Life Sciences). The experiment was performed at 25° C. using a buffer of 0.01M HEPES pH7.4, 0.15M NaCl, 3 mM EDTA, 0.05% v/v Surfactant Tween-20, and 0.1 mg/ml BSA (HBS-ET kinetics buffer) with the plate shaking at a speed of 1000 rpm. […] The antigen-captured biosensors were then saturated with a first anti-IL-33 monoclonal antibody (subsequently referred to as mAb-1) by immersion into wells containing 50 μg/mL solution of mAb-1 for 5 minutes. The biosensors were then dipped into wells containing a 50 μg/mL solution of a second anti-IL-33 monoclonal antibody (subsequently referred to as mAb-2) for 4 minutes. The biosensors were washed in HBS-ET kinetics buffer in between every step of the experiment. The real-time binding response was monitored during the experiment, and the maximum binding response for each binding step was recorded. The response of mAb-2 binding to MfIL-33-6His pre-complexed with mAb-1 was measured, and competitive/non-competitive behavior of different anti-IL-33 monoclonal antibodies with respect to each other was determined.

B1: H4H9671P (antibody, human IgG4, V domains shown)
VH: EVQLVESGGGLVQPGGSLRLSCAASGFTLRSYFMTWVRQVPGKGLEGVSAISGISGGTYYTDSVKGRFTISRDNSKNTLFLQMNSLRAEDTAVYFCARTVYSSSYYGGFQHWGQGTLVTVSS
VL: DIQMTQSPSSVSVSVGDRVTITCRASQGISSWLAWYQQKPGKAPKLLIYVASSLQSGVPSRFSGSGSGTDFTLTISSLQPEDFATYYCQQTNSFPLTFGGGTKVEIK
notes: Human IgG4 Fc (H4H)
- mAb-1 Binding to the Pre-complex of mAb-2 & hIL-33 [1]: 0.07 nm
- mAb-1 Binding to the Pre-complex of mAb-2 & hIL-33 [2]: 0.57 nm
- Kd [3]: 5.08 nM
- koff [3]: 0.00607 s⁻¹
- kon [3]: 1.2e+06 M⁻¹ s⁻¹
- t½ [3]: 1.9 min
- Kd [4]: 0.938 nM
- koff [4]: 0.00114 s⁻¹
- kon [4]: 1.21e+06 M⁻¹ s⁻¹
- t½ [4]: 10 min
- mAb-2 Binding to the Pre-complex of mAb-1 & MfIL-33-6xHis [5]: 0.29 nm

B2: H4H9672P (antibody, human IgG4, V domains shown)
VH: EVQLVESGGGLVQPGGSLRLSCAASGFTLRSYVMYWVRQGPGKGLEGVSGISGSSGGTYYTDSVKGRFTISRDNSKNTLFLQMNSLRAEDTAVYFCARSVYSTTWYGGFQHWGQGTLVTVSS
VL: DIQMTQSPSSVSVSVGDRVTITCRASQVISSWLAWYQLKPGKAPKLLIYAASSLQSGVPSRFSGSGSGTDFTLTISGLQPEDFAVYYCQQTNSFPLTFGGGTKVEIK
notes: Human IgG4 Fc (H4H)
- mAb-1 Binding to the Pre-complex of mAb-2 & hIL-33 [1]: 0.08 nm
- mAb-1 Binding to the Pre-complex of mAb-2 & hIL-33 [2]: 0.52 nm
- Kd [3]: 13.7 nM
- koff [3]: 0.013 s⁻¹
- kon [3]: 946000 M⁻¹ s⁻¹
- t½ [3]: 0.9 min
- Kd [4]: 1.05 nM
- koff [4]: 0.00115 s⁻¹
- kon [4]: 1.09e+06 M⁻¹ s⁻¹
- t½ [4]: 10 min
- mAb-2 Binding to the Pre-complex of mAb-1 & MfIL-33-6xHis [5]: 0.3 nm

B3: H4H9675P (antibody, human IgG4, V domains shown)
VH: EVQLVESGGNLEQPGGSLRLSCTASGFTFSRSAMNWVRRAPGKGLEWVSGISGSGGRTYYADSVKGRFTISRDNSKNTLYLQMNSLSAEDTAAYYCAKDSYTTSWYGGMDVWGHGTTVTVSS
VL: DIQMTQSPSSVSASVGDRVTITCRASQGIFSWLAWYQQKPGKAPKLLIYAASSLQSGVPSRFSGSGSGTDFTLTISSLQPEDFAIYYCQQANSVPITFGQGTRLEIK
notes: Human IgG4 Fc (H4H)
- mAb-1 Binding to the Pre-complex of mAb-2 & hIL-33 [1]: 0.11 nm
- mAb-1 Binding to the Pre-complex of mAb-2 & hIL-33 [2]: 0.51 nm
- Kd [3]: 4.81 nM
- koff [3]: 0.00491 s⁻¹
- kon [3]: 1.02e+06 M⁻¹ s⁻¹
- t½ [3]: 2.4 min
- Kd [4]: 0.411 nM
- koff [4]: 0.000872 s⁻¹
- kon [4]: 2.12e+06 M⁻¹ s⁻¹
- t½ [4]: 13 min
- mAb-2 Binding to the Pre-complex of mAb-1 & MfIL-33-6xHis [5]: 0.31 nm

B4: H4H9676P (antibody, human IgG4, V domains shown)
VH: EVQLVESGGGLVQPGGSLRLSCSASGFTFSSYAMNWVRQAPGKGLEWVTAISGSGGGTYYADSVKGRFTISRDNSKNSLFLQLNSLRAEDTAVYYCAKQTYTSSWYGGFDIWGQGTMVTVSS
VL: DIQMTQSPSSVSASVGDRVTITCRASQGFSSWLAWYQQIPGKAPKLLIYAASRLQSGVPSRFRGSGSGTDFTLTISSLQPEDFATYYCQQANSFPLTFGGGTKVEIK
notes: Human IgG4 Fc (H4H)
- mAb-1 Binding to the Pre-complex of mAb-2 & hIL-33 [1]: 0.1 nm
- mAb-1 Binding to the Pre-complex of mAb-2 & hIL-33 [2]: 0.45 nm
- Kd [3]: 7.7 nM
- koff [3]: 0.0144 s⁻¹
- kon [3]: 1.87e+06 M⁻¹ s⁻¹
- t½ [3]: 0.8 min
- Kd [4]: 0.922 nM
- koff [4]: 0.00128 s⁻¹
- kon [4]: 1.38e+06 M⁻¹ s⁻¹
- t½ [4]: 9 min
- mAb-2 Binding to the Pre-complex of mAb-1 & MfIL-33-6xHis [5]: 0.29 nm

B5: H1M9559N (antibody, mouse IgG1, V domains shown)
VH: QVQLVESGGGVVQPGRSLRLSCAASGFTFSSYGMHWVRQAPGKGLEWVAVIWYDGRNKYYTDSVKGRFTISRDNSKNTLYLQMDSLRAEDTAVYYCARERYISSYYGGFDPWGQGALVTVSS
VL: DIQMTQSPSSVSASVGDRVTITCRASQGISSWLAWYQQKPGKAPKVLIYAASSLQSGVPSRFSGSGSGTDFTLTISSLQPEDFATYYCQQANSFPFTFGPGTKLDIK
notes: Human variable domains, mouse IgG1 Fc (H1M)
- mAb-1 Binding to the Pre-complex of mAb-2 & hIL-33 [1]: 0.11 nm
- mAb-1 Binding to the Pre-complex of mAb-2 & hIL-33 [2]: 0.35 nm
- Kd [3]: 7.04 nM
- koff [3]: 0.00347 s⁻¹
- kon [3]: 493000 M⁻¹ s⁻¹
- t½ [3]: 3.3 min
- Kd [4]: 2.03 nM
- koff [4]: 0.000962 s⁻¹
- kon [4]: 473000 M⁻¹ s⁻¹
- t½ [4]: 12 min
- mAb-2 Binding to the Pre-complex of mAb-1 & MfIL-33-6xHis [5]: 0.25 nm
